Read-outs that look alike come from different tables or passages of the source.
B1: 3A6 chimeric antibody (antibody, V domains shown)
VH: QVQLKQSGPGLVQPSQSLSITCTVSGFSLTSYGVHWVRQSPGKGLEWLGVIWSGGTTDYNAAFISRLSISQDNSKSQVFFKMNSLQANDTAIYYCAGNQGRTVRPTWFAYWGQGTLVTVSS
VL: DILLTQSPAILSVSPGERVSFSCRASQSIGTSIHWYQQRANGSPRLLIKYASESISGIPSRFSGSGSGTDFTLSINSVESEDIAHYYCQQNSNWPLTFGAGTKLELKR
B2: 10E6-best-fit (antibody, V domains shown)
VH: QVQLQESGPGLVKPSQTLSLTCTVSGYSLTSDYAWSWIRQPPGKGLEWMVYITYSGITTYNPSLKSRITISRDTSKNQFSLKLSSVTAADTAVYYCAGGDYGLSSWFAYWGQGTTVTVSS
VL: EIVLTQSPDFQSVTPKEKVTITCRASQSISNYLHWYQQKPDQSPKLLIKYASQSISGVPSRFSGSGSGTDFTLTINSLEAEDAATYFCQQSNNWPYTFGQGTKLEIKR
B3: 10E6-stable (antibody, V domains shown)
VH: EVQLVESGGGLVQPGGSLRLSCAVSGYSLTSDYAWSWIRQAPGKGLEWMVYITYSGITTYNPSLKSRITISRDTSKNTFYLQMNSLRAEDTAVYYCAGGDYGLSSWFAYWGQGTMVTVSS
VL: DIQLTQSPSSLSASVGDRVTITCRASQSISNYLHWYQQKPGKAPKLLIKYASQSISGVPSRFSGSGSGTDFTLTISSLQPEDFATYFCQQSNNWPYTFGQGTKVEIKR
B4: 10E6 chimeric antibody (antibody, V domains shown)
VH: DVQLQESGPGRVKPSQSLSLTCTVTGYSLTSDYAWSWIRQFPGNRLEWMVYITYSGITTYNPSLKSRISITRDTSKNQFFLQLNSVTTEDTATYYCAGGDYGLSSWFAYWGQGTLVTVSS
VL: DIVLTQSPVTLSVTPGDRVSLSCRASQSISNYLHWYQQKSHESPRLLIKYASQSISGIPSRFSGSGSGTDFTLSINSVETEDFGMYFCQQSNNWPYTFGGGTKLEIKR

Experiments:
[1] = target: T1, human EGFR soluble extracellular region with C-terminal poly-histidine tag (hEGFR) (UniProt P00533 25-638); assay: SPR
[2] = target: T1, human EGFR soluble extracellular region …; assay: SPR; remark: listed apart in the source

Row | Binder | Kd [1] | Kd [2]
1 | B1 | 0.346 µM | 
2 | B2 |  | 0.0201 µM
3 | B3 |  | 0.0145 µM
4 | B4 | 0.0108 µM | 
